System: MS2 coat protein
Assay: apparent KD of MS2 coat protein; higher = weaker reporter binding
Details: Eterna round: R107
How it was run: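 On-chip transcription from Illumina sequencing clusters produced the designed RNA switches. These were titrated with SNAP-549-labelled MS2 coat protein (twofold steps, 0.7 or 1.5 nM to 3 µM) in 100 mM Tris-HCl pH 7.5, 80 mM KCl, 4 mM MgCl2, with or without constant ligand. The apparent KD given is the per-design median of normalised cluster binding-curve fits.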

[1] = input ligand: theophylline 20 uM
[2] = input ligand: theophylline 2 mM
[3] = input ligand: tryptophan 2.4 mM

Sequence	apparent KD of MS2 coat protein (input ligand: arginine 13.2 mM)	apparent KD of MS2 coat protein (input ligand: none)	apparent KD of MS2 coat protein [1]	apparent KD of MS2 coat protein [2]	apparent KD of MS2 coat protein [3]
GGCACCAGGAGAAGGAGCGUGAAGACAUGAGGAUCACCCAUGUAGAGGCCCGUACUGGGUUCGCAGGUAGGUCGCUCCUGGUGCC [#1 Same State - Arginine B Attempt #13 (HarryS)]	22.1 nM	22.9 nM	39.2 nM	28.7 nM	29.9 nM
GGCUAGUGCAUCGAUACCAGCUACAUGAGGAUCACCCAUGUAGGAAGGGUGGUACUCGAUAGCCCUUGGCAGCGAACACCUCCGG [Quoran]	18.7 nM	–	35.7 nM	–	18.8 nM
GGGAGGGAGGCGGCCGCCACUGAUUUUCAUAUAUAUAUAACAUGAGGAUCACCCAUGUAGAUAUGCAGGACCGGGCCUUUUUUUU [aaaI]	21.3 nM	–	30.1 nM	19.1 nM	–
GGGAUAUAGGCGGCCGCCACUGAUUUUCAUAUAUAUAUAACAUGAGGAUCACCCAUGUAGAUAUACAGGACCGGGCCUAUAUUUU [aaaD]	14.8 nM	15.2 nM	17.4 nM	21.1 nM	13.5 nM
GGGCAAGAGGGAAGGAGCGUCAGCUGAGUCACAUGAGGAUCACCCAUGUAGCACAUAGUGUGACAGGUAGGUCGCCCUCUGCCCU [SS-ArgB5]	11.1 nM	9.19 nM	14.4 nM	11.4 nM	11.6 nM
GGGCGCUAUCCCGCGAGGGAUAGCGUUCGACGAGGACCGGUACGGCCGCCACUCGAACGAGUGGGUACAUGAGGAUCACCCAUGU [Gaa]	26.3 nM	33.5 nM	50.9 nM	33.3 nM	25.9 nM
GGGCGCUAUCCCGCGAGGGAUAGCGUUCGGCGAGGACCGGUACGGCCGCCACUCGAACGAGUGGGUACAUGAGGAUCACCCAUGU [Faa]	23.1 nM	28 nM	39.6 nM	36.3 nM	30.6 nM
GGGUACAUCGCGGCCGCCACUCAUGUAAAUGCAUGAGGAUCACCCAUGCCGAUGGAGACAUCGGAGAGGACCGGGUGAUGUACCG	41.8 nM	45.8 nM	68.7 nM	71.1 nM	33.6 nM
GGGUCAGGCGCGGCCGCCACUGCGGUGAUGUGACAUGAGGAUCACCCAUGUUGUCAUGUGGCACAUAGGACCGGGCGCCUGGCCC [#1 Exclusion - Tryptophan B Attempt #7 (HarryS)]	25.4 nM	–	41.5 nM	33.2 nM	–
GGGUGGUAGGCGGCCGCCACUGAUUUUUAUUUAUAGAUGACAUGAGGAUCACCCAUGUAGAUAUGCAGGACCGGGCCUGUUGUUU [aaaO]	16.6 nM	–	22.3 nM	19.3 nM	–
GGUCUCUGGAGCGAUACCAGCUUAAGUGUACUGGCCAGGUACAUGAGGAUCACCCAUGUAAGCCCUUGGCAGCGCUCCAGAGACC [#1 Exclusion - Theophylline B Attempt #14 (HarryS)]	16.7 nM	10.4 nM	16.1 nM	41.5 nM	12.2 nM
GGUCUCUGGAGCGAUACCAGCUUGAGUGUACUGGCCAGGUACAUGAGGAUCACCCAUGUAAGCCCUUGGCAGCGCUCCAGAGACC [#1 Exclusion - Theophylline B Attempt #15 (HarryS)]	9.19 nM	9.21 nM	14 nM	44.7 nM	11 nM
GGUGGCGUGACGGAUACCAGCCACCACCGAUAGACCACAUGAGGAUCACCCAUGUUGGGUGGCCCUUGGCAGCUGUCGUGCGGCG [#1 Same State - Theophylline B Attempt #17 (HarryS)]	82 nM	–	409 nM	–	220 nM
GGUUACUCUACGGCCGCCACUGAUUAAUUAUAAUCCUGUACAUAAACAUGAGGAUCACCCAUGUACAGGACCGGGUAGUGUAACC [Tryptophan B 10]	32.3 nM	–	46.2 nM	36.3 nM	–
GGUUGAAACUGAAGGAGCGAGAUCACAAGAUUGGGUCUAACAUGAGGAUCACCCAUGUAAUCUCAGGUAGGUCGCAGUGACCAAA [Exclusion Arginine B GF 13]	28 nM	38.4 nM	45.1 nM	51.7 nM	38.1 nM
GUAAUUUUAAGAAGGAGCGUCGAAAAUGGGUAAACAUGAGGAUCACCCAUGUAAAGGGAACGACAGGUAGGUCGCUUAGGAUUAC [AstromonsSSArgB#23]	113 nM	191 nM	235 nM	220 nM	198 nM
GUACACAUGAGGAUCACCCAUGUACUGGUACGAGGACCGGUACGGCCGCCACUCGCCGAGAUUCAUAACACAUCAGAAAGCUCAC [theeternabot_sameState_MS2_Trp_A_45]	13.5 nM	–	27.6 nM	18.8 nM	–
GUACAUGAGGAUCACCCAUGUAUAGUUGAAGGAGCGACCGGAGGGUCAGGUAGGUCGCAGCACAUGGCGUAAACCCGUGUAUGCC [#1 Exclusion - Arginine A Attempt #24 (Inspired by Pi)]	18.5 nM	21.7 nM	32.7 nM	31.9 nM	23 nM

Sequence	apparent KD of MS2 coat protein (input ligand: arginine 13.2 mM)	apparent KD of MS2 coat protein (input ligand: none)	apparent KD of MS2 coat protein [1]	apparent KD of MS2 coat protein [2]	apparent KD of MS2 coat protein [3]
GUACAUGAGGAUCACCCAUGUAUAGUUGAAGGAGCGACCGGUGGGUCAGGUAGGUCGCAGCGCAUGGCGUCAACCCGUGUAUGCC [#1 Exclusion - Arginine A Attempt #27 (Inspired by Pi)]	13.8 nM	17.2 nM	24.8 nM	21 nM	17.9 nM
GUUAUGGACCUGGAUACCAGCUGGUACGAGGGCGGUCUACAUGAGGAUCACCCAUGUGUCAGCCCUUGGCAGCCAGCAACCCGCU [Raquleer]	10 nM	9.39 nM	12.6 nM	11.9 nM	9.92 nM
GUUGGAUGCUCGGCCGCCACUGAGAGAGUCAUGUGAACAUGAGGAUCACCCAUGUAAUAUAUAUACAGGACCGGGAGUGUUGUAA [4.J]	19.7 nM	19.5 nM	50.6 nM	25 nM	13.3 nM
GUUGGUUUGCGAAGGAGCGGGUAUGUUGUCUACUUGAUCCUAACAUGAGGAUCACCCAUGUCCCAGGUAGGUCGCGCGGGCUUUG [12.aC]	37 nM	45.1 nM	63.9 nM	81 nM	46.8 nM
GUUGGUUUGGGAAGGAGCGGGUAUGUUGUCUACUUGAUCCUAACAUGAGGAUCACCCAUGUCCCAGGUAGGUCGCCCAAGCUUUG [12.aE]	69.8 nM	161 nM	152 nM	316 nM	186 nM
GUUUUAUCAAAAGAUGAAACAGUGGGUGAACGAGGACCGGUACGGCCGCCACUCGGACAUGAGGAUCACCCAUGUCCAUGUGAAA [AstrosExyTryA#13]	15.4 nM	18.4 nM	17.1 nM	21.1 nM	54.1 nM
GUUUUGGGAUCGGCCGCCACUACAUGAGGAUCACCCAUGUGGACAAAUAGGGUUUUUAAGCUCGGUAGGACCGGGAUUCGAACAU [Abeis]	15.4 nM	–	19 nM	17.5 nM	–
UAAACUACACAUGAGGAUCACCCAUGUGGCCGAGGACCGGUACGGCCGCCACUCGUGUGUUAAUAAAAGAACUGCAAAGUUCCUU [Aquen]	63.1 nM	–	416 nM	504 nM	–
UAACAUGAGGAUCACCCAUGUAUACUAAGUCGAGGACCGGUACGGCCGCCACUCGAAAUUGAAGAAUUGGCGGUAAAUGUAAGUA [JR_ExcTryptoA_Sub019]	12.6 nM	–	15.9 nM	14.3 nM	–
UAACAUGAGGAUCACCCAUGUAUACUUAGUCGAGGACCGGUACGGCCGCCACUCGUACUUCAAGAUUUGGCGGAAAAUGUAUGUA [JR_ExcTryptoA_Sub021]	14.2 nM	–	15.6 nM	12.5 nM	–
UAAUGCAGGUCGGCCGCCACUACAAACAUGAGGAUCACCCAUGUAGUUACUGGGUGAAGUGGCAGUAGGACCGGGACCUGCAUAA [Trp-Ms2-T'-M'-T''_Design1]	102 nM	–	602 nM	1040 nM	–
UAAUUCACUAUUCACGGUCCGAUGUUCGAUACCAGAUCAUUUCGAAUCCCUUGGCAGCGAUUAACAUGAGGAUCACCCAUGUAAC [theeternabot_exclusion_MS2_Theo_A_35]	28.4 nM	–	40.6 nM	–	38.6 nM
UACACAUGACAUGAUACCAGCCCAUGUGAACAUGAGGAUCACCCAUGUAUGAGGACAUGAGGCCCUUGGCAGCAUGUAUACAUGA [Same State Theophylline B 2]	11.6 nM	–	12.7 nM	–	11.4 nM
UACAUGAGGAUCACCCAUGUAUGAAGGGAUACCAGCGACAGUAAGCGCCCUUGGCAGCCCGUGAAUAAAGGGUGGGUAAAAUAGU [Exclusion Theophyline A GF 3]	26.9 nM	21.4 nM	30.9 nM	39.4 nM	16.1 nM
UACUUGCUGACGGCCGCCACUAGAACAUGAGGAUCACCCAUGUACCCGGUCCUAAUCCUCAUGACUAGGACCGGGUCAGCAAGAU [(Trp1)-(Ms2)-(T)'-(M)'-(Trp2)_Design2]	26.4 nM	–	42.1 nM	35.5 nM	–
UACUUGCUGACGGCCGCCACUAGAACAUGAGGAUCACCCAUGUACCCGGUCCUACAUGGGAUGACUAGGACCGGGUCAGCAAGAU [(Trp1)-(Ms2)-(T)'-(M)'-(Trp2)_Design3]	39.6 nM	–	72.4 nM	68.5 nM	–
UAGUUGUAGUCGGCCGCCACUGUGAGCAUGGUUAACAUGAGGAUCACCCAUGUCCCGUACUAUAACAGGACCGGGACGUAGUUGC [#10 Same State - Tryptophan B]	31.1 nM	–	79.4 nM	134 nM	–

Source: the supplement of paper PMC9170038
